We go through 1 substance from paper PMC3807708.

Among the targets are IFN-γ-Rx N96F (human) (UniProt P15260); IFN-γ-Rx T166M (human) (UniProt P15260); IFN-γ-Rx T166Y (human) (UniProt P15260).
Holding throughout (test): SPR; ProteOn XPR36; His-tagged receptor immobilised on Ni2+-activated HTG chip; IFN-γ-SC as analyte, 1.2 to 99 nM; PBST (PBS pH 7.4, 0.005% Tween20); 25°C; 1:1 Langmuir with drift model; doubly referenced
For assay [1], the target named is IFN-γ-Rx N70G + H222R (human) (UniProt P15260).
In assay [2] the target is IFN-γ-Rx N70G + S95R (human) (UniProt P15260).
Assay [3] addresses IFN-γ-Rx N70G + S95R + H222R (human) (UniProt P15260).
Assay [4] concerns the target IFN-γ-Rx S95R + H222R (human) (UniProt P15260).

With “single-chain form of human interferon-γ (IFN-γ-SC) (ligand)”, the Kd in assay [1] was 26.9 nM; in assay [2], 55.9 nM; in assay [3] it was 37 nM; in the assay with IFN-γ-Rx N96F (human) it was 28 nM; in assay [4] it was 56.3 nM; with IFN-γ-Rx T166M (human), 68.5 nM. This substance also displayed a Kd with IFN-γ-Rx T166Y (human) of 83.1 nM. Also, the off-rate (koff) is 0.0391 s⁻¹ in assay [1]; 0.0494 s⁻¹ in assay [2]; 0.0401 s⁻¹ in assay [3]; 0.0283 s⁻¹ with IFN-γ-Rx N96F (human); 0.059 s⁻¹ in assay [4]; 0.0639 s⁻¹ in the assay with IFN-γ-Rx T166M (human). Also, the koff with IFN-γ-Rx T166Y (human) worked out at 0.0782 s⁻¹. Besides, the kon in assay [1] worked out at 1.46e+06 M⁻¹ s⁻¹; in assay [2] it was 889000 M⁻¹ s⁻¹; in assay [3], 1.09e+06 M⁻¹ s⁻¹; with IFN-γ-Rx N96F (human) it was 1.01e+06 M⁻¹ s⁻¹; in assay [4] it was 1.05e+06 M⁻¹ s⁻¹; in the assay with IFN-γ-Rx T166M (human), 933000 M⁻¹ s⁻¹. The on-rate constant (kon) with IFN-γ-Rx T166Y (human) amounted to 940000 M⁻¹ s⁻¹.
